Experimental data as given in patent publication US20200392225A1 (Novartis, published 2020).

T1: human NPR1 expressed on CHO-K1 cells (human, UniProt P16066 33-1061)
T1 sequence: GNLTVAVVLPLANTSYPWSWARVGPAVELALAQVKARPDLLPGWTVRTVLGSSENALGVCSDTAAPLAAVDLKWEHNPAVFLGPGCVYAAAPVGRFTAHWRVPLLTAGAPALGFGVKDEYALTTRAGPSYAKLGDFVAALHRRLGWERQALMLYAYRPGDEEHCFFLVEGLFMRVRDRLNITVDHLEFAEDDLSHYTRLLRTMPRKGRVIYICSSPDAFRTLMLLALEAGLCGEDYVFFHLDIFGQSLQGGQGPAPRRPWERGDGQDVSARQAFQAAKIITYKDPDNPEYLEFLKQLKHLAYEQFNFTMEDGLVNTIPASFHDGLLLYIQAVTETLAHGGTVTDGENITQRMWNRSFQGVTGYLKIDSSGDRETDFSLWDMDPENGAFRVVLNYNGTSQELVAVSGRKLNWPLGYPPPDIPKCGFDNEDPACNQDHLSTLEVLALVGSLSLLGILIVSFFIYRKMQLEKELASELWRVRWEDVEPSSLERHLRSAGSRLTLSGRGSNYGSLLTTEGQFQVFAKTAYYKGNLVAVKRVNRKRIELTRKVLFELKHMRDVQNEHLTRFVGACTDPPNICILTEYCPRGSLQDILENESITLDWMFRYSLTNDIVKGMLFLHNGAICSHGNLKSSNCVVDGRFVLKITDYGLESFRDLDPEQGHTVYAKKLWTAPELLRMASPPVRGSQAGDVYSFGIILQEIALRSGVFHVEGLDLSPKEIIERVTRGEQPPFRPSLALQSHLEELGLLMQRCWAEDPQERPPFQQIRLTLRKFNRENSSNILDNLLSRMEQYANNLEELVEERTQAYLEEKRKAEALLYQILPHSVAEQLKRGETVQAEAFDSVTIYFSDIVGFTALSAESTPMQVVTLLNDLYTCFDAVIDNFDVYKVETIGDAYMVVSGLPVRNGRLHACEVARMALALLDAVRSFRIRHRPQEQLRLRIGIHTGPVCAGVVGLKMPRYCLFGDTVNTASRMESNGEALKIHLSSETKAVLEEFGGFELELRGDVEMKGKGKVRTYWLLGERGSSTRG


What was measured:
rat NPR1-ANP complex = molecular target: T2, rat NPR1-ANP complex (rat); assay: ELISA, IgG titrated on the antigen with 250 fold molar excess of ANP
T2 construct: Rat receptor antigen measured in the presence of ANP; also called rNPR1 + ANP; rNPR1-ANP-complex

[1] = molecular target: T1, human NPR1 expressed on CHO-K1 cells; assay: cell-based or functional assay
[2] = molecular target: T1, human NPR1 expressed on CHO-K1 cells; assay: cell-based or functional assay; remark: listed apart in the source

T2 sequence (P18910 29-469, one chain of several): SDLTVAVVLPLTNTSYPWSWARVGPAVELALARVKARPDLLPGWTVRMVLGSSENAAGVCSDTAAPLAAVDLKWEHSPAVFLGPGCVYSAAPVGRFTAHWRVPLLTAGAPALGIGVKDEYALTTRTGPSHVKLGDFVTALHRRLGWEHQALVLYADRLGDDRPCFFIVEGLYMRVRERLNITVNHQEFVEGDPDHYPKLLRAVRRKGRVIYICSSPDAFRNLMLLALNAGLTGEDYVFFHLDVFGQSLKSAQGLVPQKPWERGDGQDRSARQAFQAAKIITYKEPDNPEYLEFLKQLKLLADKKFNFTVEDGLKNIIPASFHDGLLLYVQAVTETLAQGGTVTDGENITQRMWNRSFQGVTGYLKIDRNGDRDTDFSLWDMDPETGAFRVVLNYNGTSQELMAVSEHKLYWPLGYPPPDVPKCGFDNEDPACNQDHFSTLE

| Binder | EC50 (read off the curve) (rat NPR1-ANP complex) | cGMP conc [nM] at 2 uM FabCys, +0.075 nM ANP [1] | cGMP conc [nM] at 2 uM FabCys, without ANP [1] | cGMP conc [nM] at 1 uM FabCys, +0.075 nM ANP [2] | cGMP conc [nM] at 1 uM FabCys, without ANP [2] |
| --- | --- | --- | --- | --- | --- |
| XX03 IgG (antibody, V domains shown, also called XX03_LALA) VH: EVQLLESGGGLVQPGGSLRLSCAASGFTFSSYWMNWVRQAPGKGLEWVSVIESKGNYIFYADSVKGRFTISRDNSKNTLYLQMNSLRAEDTAVYYCARDRYSMIYSYGAGAFDYWGQGTLVTVSS VL: DIQMTQSPSSLSASVGDRVTITCRASQGISSYLAWYQQKPGKAPKLLIYTASTLQSGVPSRFSGSGSGTDFTLTISSLQPEDFATYYCMQSYEKPRTFGQGTKVEIKR | ~0.2 nM |  |  |  |  |
| WW01 FabCys (Fab, V domains shown) VH: QVQLLESGGGLVQPGGSLRLSCAASGFTFNTHYIHWVRQAPGKGLEWVSSISGSGSNTYYADSVKGRFTISRDNSKNTLYLQMNSLRAEDTAVYYCARERGYVYYHMFDPWGQGTLVTVSS VL: DIVLTQSPATLSLSPGERATLSCRASQSITRNYLAWYQQKPGQAPRLLIYGASSRATGIPARFSGSGSGTDFTLTISSLEPEDFAVYYCQQHSMYPRTFGQGTKVEIK |  | 121 nM | 30 nM |  |  |
| YY07 FabCys (Fab, V domains shown) VH: EVQLVQSGAEVKKPGESLKISCKGSGYSFTSYWISWVRQMPGKGLEWMGIIYPGTSYTRYSPSFQGQVTISADKSISTAYLQWSSLKASDTAMYYCARGSLPGLLGFDHWGQGTLVTVSS VL: QSVLTQPPSVSGAPGQRVTISCTGSSSNIGAGYDVHWYQQLPGTAPKLLIYGNSNRPNGVPDRFSGSKSGTSASLAITGLQAEDEADYYCQSYDSPTSSSVFGGGTKLTVL |  |  |  | 88 nM | 77 nM |
| YY05 FabCys (Fab, V domains shown) VH: EVQLVQSGAEVKKPGESLKISCKGSGYSFTSYWISWVRQMPGKGLEWMGIIYPGTSYTRYSPSFQGQVTISADKSISTAYLQWSSLKASDTAMYYCARGAVAGQLGFDHWGQGTLVTVSS VL: QSVLTQPPSVSGAPGQRVTISCTGSSSNIGAGYDVHWYQQLPGTAPKLLIYGNSNRPSGVPDRFSGSKSGTSASLAITGLQAEDEADYYCQSYYTSSHGPVFGGGTKLTVL |  |  |  | 227 nM | 207 nM |

Results, then the binder that gave them:

| EC50 (read off the curve) (rat NPR1-ANP complex) | cGMP conc [nM] at 2 uM FabCys, +0.075 nM ANP [1] | cGMP conc [nM] at 2 uM FabCys, without ANP [1] | cGMP conc [nM] at 1 uM FabCys, +0.075 nM ANP [2] | cGMP conc [nM] at 1 uM FabCys, without ANP [2] | Binder |
| --- | --- | --- | --- | --- | --- |
|  | 251 nM | 281 nM |  |  | WW06 FabCys (Fab, V domains shown) VH: QVQLVQSGAEVKKPGESLKISCKGSGYSFTSYWIAWVRQMPGKGLEWMGRIDPDNSYTRYSPSFQGQVTISADKSISTAYLQWSSLKASDTAMYYCARWLSPGYALGEQPAGMDHWGQGTLVTVSS VL: DIVLTQPPSVSGAPGQRVTISCTGSSSNIGAGYAVHWYQQLPGTAPKLLIYSNNKRPSGVPDRFSGSKSGTSASLAITGLQAEDEADYYCQSYDLQKSSRVFGGGTKLTVL |
|  |  |  | 75 nM | 20 nM | YY06 FabCys (Fab, V domains shown) VH: EVQLLESGGGLVQPGGSLRLSCAASGFTFSSYAISWVRQAPGKGLEWVSAISGSGGSTYYAESVKGRFTISRDNSKNTLYLQMNSLRAEDTAVYYCARPYLGDRRSYGFDHWGQGTLVTVSS VL: QSALTQPASVSGSPGQSITISCTGTSSDVGSYNLVSWYQQHPGKAPKLMIYEGSKRPSGVSNRFSGSKSGNTASLTISGLQAEDEADYYCSSYGFHIVVVVFGGGTKLTVL |
